Laboratory results taken from patent US8143228B2, “Agents capable of downregulating an MSF-A dependent HIF-1α and use thereof in cancer treatment” (Medical Research Fund of Tel Aviv Sourasky Medical Center, priority 2004, dated 2012).

How the values were obtained:
[1] = tested on: PC-3 xenograft tumors; assay: Prostate cancer subcutaneous xenograft model; format: in vivo, CD1/nude mice; settings: PC-3-MSF-A vs PC-3-Neo tumors
Experimental: FIG. 28 is a graph depicting the effect of MSF-A over-expression on tumor volume. A prostate cancer xenograft model was established using PC-3-Neo and PC-3-MSF-A cells (3×10^6) which were implanted subcutaneously into the right hind of nude mice. PBS was used as a negative control. Animals were monitored for tumor volume measurements. Tumor volume measurements were calculated using the formula width^2×length×0.52. Mean±SEM (n=5) of representative experiments is shown.
FIG. 29 is a graph depicting the effect of MSF-A over-expression on tumor weight. A prostate cancer xenograft model was established as described in FIG. 28. Mice were sacrificed after 6 weeks and tumors were processed for tumor weight measurements. Tumors were weighed immediately after dissection. Columns, means; bars, SEM; n=5; *, p<0.05.
FIGS. 30a-h are photomicrographs (FIGS. 30a-f) and graphs (FIGS. 30g-h) depicting MSF-A over-expression in tumors and angiogenesis in a prostate cancer xenograft model. […] FIG. 30g—Ki67 staining (%) was quantified by dividing the number of positive nuclei by the number of total nuclei in 40× magnification field multiplied by 100, of 5 paraffin-embedded tumor sections from each animal per group. […] FIG. 30h—Microvessel density (MVD) was determined by counting the capillaries positive for CD34 staining in 4× magnification field per total section area excluding necrotic areas in 5 paraffin-embedded tumor sections from each animal per group. […]
Immunohistochemistry with anti-CD34 and anti-Ki67—For immunohistochemical staining paraffin-embedded tissue was sectioned at 3 μm and mounted on Superfrost/plus slides (Menzel-Glaser, Braunschweig, Germany). […] For quantitative analysis of Ki67 and CD34 staining, positive staining cells and microvessels were counted and their density expressed as the number of positive cells per total number of cells or capillaries per total section area excluding necrotic areas, respectively. […]

[2] = tested on: HIF-1α transcriptional activity; assay: HRE-dependent luciferase reporter gene assay in HEK 293 cells; format: cell-based; settings: transient transfection, hypoxia, compared with empty vector
Experimental: FIG. 7 is a graph depicting luciferase activity (a reporter of HIF-1α transcriptional activation) as a function of the presence or absence of the N-terminus of the MSF-A protein. HEK 293 cells were co-transfected with 0.1 μg HRE-dependent luciferase reporter [pBI-GL V6L (Post, D. E., and Van Meir, E. G. 2001. Generation of bidirectional hypoxia/HIF-responsive expression vectors to target gene expression to hypoxic cells. Gene Ther 8, 1801-1807. Mabjeesh, N. J., et al., 2002, Geldanamycin induces degradation of hypoxia-inducible factor 1 alpha protein via the proteasome pathway in prostate cancer cells. Cancer Res 62, 2478-2482) and the wild type (WT) MSF-A (p3xFlag-MSF-A), ΔN-MSF-A (ΔN) (p3xFlag-ΔN-MSF-A) or empty vector (EV) (p3xFlag-cmv-25) constructs as follows: Experiment (Exp.) No. 1=1 μg EV; Exp. No. 2=0.5 μg EV and 0.5 μg WT; Exp. No. 3-1 μg WT; Exp. No. 4=0.5 μg EV and 0.5 μg ΔN; Exp. No. 5=1 μg ΔN. After 24 hours of transfection, cells were subjected to normoxia or hypoxia for overnight and then analyzed for luciferase luminescence assay. Luciferase activity is presented as relative units per μg protein in each experiment. Columns represent means; bars represent SD; n=3; *, p<0.05 compared to hypoxia of EV. Note the significant decrease of luciferase activity in cells grown under hypoxia and transfected with the N-terminus truncated form (ΔN) of MSF-A as compared with cells transfected with the wild-type form of MSF-A. Also note that under normoxia, when the luciferase activity is hardly detected, no significant difference is obtained.
FIG. 8 is a graph depicting luciferase activity (a reporter of HIF-1α transcriptional activation) as a function of the presence or absence of the GTP binding site of MSF-A (ΔG). HEK 293 cells were cotransfected with HRE-dependent luciferase reporter and the expression vector encoding wild-type MSF-A (WT) (p3xFlag-MSF-A), the deleted GTP binding site form of MSF-A (ΔG) (p3xFlag-ΔG-MSF-A) or empty vector (EV) (p3xFlag-cmv-25) and then were exposed to hypoxia conditions as described in the description of FIG. 4, hereinabove. Luciferase activity is presented as relative units per μg protein in each experiment. Columns represent means; bars represent SD; n=3. Note the non-significant effect of the ΔG-MSF-A on HIF-1α activity.
Reporter gene assay and luminescence measurements—HRE-dependent luciferase activity was performed using the pBI-GL construct (pBI-GL V6L) containing six tandem copies of the VEGF hypoxia response element as previously described (Mabjeesh et al., 2002; Post and Van Meir, 2001). […] Luciferase enzymatic activity was measured using the commercial kit TROPIX (Bedford, Mass.) in the Galaxy luminometer (BMG Labtechnologies LUMIstar) following the manufacturer's instructions. […]

B1: MSF-A: myeloid/lymphoid leukemia septin-like fusion protein A (SEQ ID NO:3), over-expressed from the p3xFlag-MSF-A vector (protein, listed as Homo sapiens)
chain: MKKSYSGGTRTSSGRLRRLGDSSGPALKRSFEVEEVETPNSTPPRRVQTPLLRATVASSTQKFQDLGVKNSEPSARHVDSLSQRSPKASLRRVELSGPKAAEPVSRRTELSIDISSKQVENAGAIGPSRFGLKRAEVLGHKTPEPAPRRTEITIVKPQESAHRRMEPPASKVPEVPTAPATDAAPKRVEIQMPKPAEAPTAPSPAQTLENSEPAPVSQLQSRLEPKPQPPVAEATPRSQEATEAAPSCVGDMADTPRDAGLKQAPASRNEKAPVDFGYVGIDSILEQMRRKAMKQGFEFNIMVVGQSGLGKSTLINTLFKSKISRKSVQPTSEERIPKTIEIKSITHDIEEKGVRMKLTVIDTPGFGDHINNENCWQPIMKFINDQYEKYLQEEVNINRKKRIPDTRVHCCLYFIPATGHSLRPLDIEFMKRLSKVVNIVPVIAKADTLTLEERVHFKQRITADLLSNGIDVYPQKEFDEDSEDRLVNEKFREMIPFAVVGSDHEYQVNGKRILGRKTKWGTIEVENTTHCEFAYLRDLLIRTHMQNIKDITSSIHFEAYRVKRLNEGSSAMANGVEEKEPEAPEM
modifications: 3xFlag tag
- intratumoral cell proliferation (Ki67) and vascular density (CD34) [1]: significantly increased
- mean tumor weight ([1]; after 6 weeks): significantly heavier
- increase of mean tumor volume ([1]; s.c., nude mice, not statistically significant): about 2 fold
- HIF-1α transcriptional activity (luciferase reporter) [2]: induced HIF-1α activity
